Experimental data from the RNAGym collection of RNA variant scans (doi:10.1093/molbev/msab373).

B1: Azoarcus group I ribozyme (parent)
chain: GUGCCUUGCGCCGGGAAACCACGCAAGGGAUGGUGUCAAAUUCGGCGAAACCUAAGCGCCCGCCCGGGCGUAUGGCAACGCCGAGCCAAGCUUCGGCGCCUGCGCCGAUGAAGGUGUAGAGACUAGACGGCACCCACCUAAGGCAAACGCUAUGGUGAAGGCAUAGUCCAGGGAGUGGCGAAAGUCACACAAACCGG

Variants of: B1
Test: reverse-splicing fitness (ratio to wild type); higher = more active; in vitro selection; Mg2+ level not given
Outline: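 An in vitro group I ribozyme library with randomized positions was T7-transcribed and gel-purified. In triplicate, 10 pmol RNA in EPPS pH 7.5 was reacted with 50 pmoles of a 30-nt RNA substrate for 1 h at 37 °C across several added MgCl2 levels (1–48 mM), then stopped with EDTA. Products were reverse transcribed from a substrate-complementary primer, PCR-amplified and sequenced (HiSeq 4000). Fitness is a variant's read proportion after selection over that before, normalised to wild type.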

Row | Variant | reverse-splicing fitness
1 | C82U A111U A120G A145U C150A C169A U176A | 0.0137
2 | C82U A111U A120G A145U C150A U176A | 0.0096
3 | C82U A111U A120G A145U C150A U176G | 0.00425
4 | C82U A111U A120G A145U C150A U176C | 0.0112
5 | C82U A111U A120G A145C C150A C169U U176C | 0.00977
6 | C82U A111U A120G A145C C150A C169U U176G | 0.00474
7 | C82U A111U A120G A145C C150A C169U U176A | 0.0189
8 | C82U A111U A120G A145C C150U U176C | 0.00906
9 | C82U A111U A120G A145C C150U U176A | 0.00859
10 | C82U A111U A120G A145C C150U U176G | 0.00412
11 | C82U A111U A120G C150A C169G U176A | 0.0221
12 | C82U A111U A120G C150A C169G U176C | 0.0213
13 | C82U A111U A120G C150A C169G U176G | 0.00529
14 | C82U A111U A120G A145G C169A U176A | 0.0205
15 | C82U A111U A120G A145G C169A U176C | 0.031
16 | C82U A111U A120G A145G C169A U176G | 0.00433
17 | C82U A111U A120G A145C C150G C169U U176A | 0.0142
18 | C82U A111U A120G A145C C150G C169U U176C | 0.0113
19 | C82U A111U A120G A145C C150G C169U U176G | 0.00495
20 | C82U A111U A120G C169U | 0.0086
21 | C82U A111U A120G C169G | 0.01

Row | Variant | reverse-splicing fitness
22 | C82U A111U A120G C169A | 0.00883
23 | C82U A111U A120G A145C C150U C169G U176C | 0.0111
24 | C82U A111U A120G A145C C150U C169G U176G | 0.00484
25 | C82U A111U A120G A145C C150U C169G U176A | 0.0216
26 | C82U A111U A120G A145U C150G C169G | 0.00671
27 | C82U A111U A120G A145U C150G C169U | 0.00779
28 | C82U A111U A120G A145U C150G C169A | 0.00759
29 | C82U A111U A120U A145C C150A C169U | 0.00254
30 | C82U A111U A120U A145C C150A C169G | 0.00215
31 | C82U A111U A120U A145C C150A C169A | 0.00214
32 | C82U A111U A120G A145U C150U U176C | 0.013
33 | C82U A111U A120G A145U C150U U176G | 0.00443
34 | C82U A111U A120G A145U C150U U176A | 0.00953
35 | C82U A111U A120G A145G C150U U176G | 0.00569
36 | C82U A111U A120G A145G C150U U176C | 0.0171
37 | C82U A111U A120G A145G C150U U176A | 0.00911
38 | C82U A111U A120G A145C C169A U176C | 0.00603
39 | C82U A111U A120G A145C C169A U176G | 0.00391
40 | C82U A111U A120G A145C C169A U176A | 0.00993
41 | C82U A111U A120G A145G C150A C169U U176C | 0.0157
42 | C82U A111U A120G A145G C150A C169U U176G | 0.00536

Row | Variant | reverse-splicing fitness
43 | C82U A111U A120G A145G C150A C169U U176A | 0.0205
44 | C82U A111U A120G C150U C169G U176A | 0.0146
45 | C82U A111U A120G C150U C169G U176C | 0.0168
46 | C82U A111U A120G C150U C169G U176G | 0.00456
47 | C82U A111U A120U A145C C169U U176A | 0.00247
48 | C82U A111U A120U A145C C169U U176G | 0.00177
49 | C82U A111U A120U A145C C169U U176C | 0.0022
50 | C82U A111U A120U A145G | 0.0251
51 | C82U A111U A120U A145C | 0.0211
52 | C82U A111U A120G A145U C150U C169U | 0.00788
53 | C82U A111U A120G A145U C150U C169G | 0.00885
54 | C82U A111U A120G A145U C150U C169A | 0.00897
55 | C82U A111U A120G A145C C150A C169G | 0.00785
56 | C82U A111U A120G A145C C150A C169U | 0.00623
57 | C82U A111U A120G A145C C150A C169A | 0.00756
58 | C82U A111U A120G C169U U176G | 0.00594
59 | C82U A111U A120G C169U U176C | 0.0161
60 | C82U A111U A120G C169U U176A | 0.0215
61 | C82U A111U A120G A145U C150U | 0.0114
62 | C82U A111U A120G A145U C150G | 0.00635
63 | C82U A111U A120G A145U C150A | 0.00808

Row | Variant | reverse-splicing fitness
64 | C82U A111U A120G A145C C169U U176A | 0.0194
65 | C82U A111U A120G A145C C169U U176G | 0.00376
66 | C82U A111U A120G A145C C169U U176C | 0.0108
67 | C82U A111U A120G A145G C150A C169G U176A | 0.0152
68 | C82U A111U A120G A145G C150A C169G U176G | 0.00481
69 | C82U A111U A120G A145G C150A C169G U176C | 0.0253
70 | C82U A111U A120U A145C U176A | 0.00627
71 | C82U A111U A120U A145C U176C | 0.00756
72 | C82U A111U A120U A145C U176G | 0.00259
73 | C82U A111U A120U A145C C150U C169G U176A | 0.00283
74 | C82U A111U A120U A145C C150U C169G U176C | 0.00287
75 | C82U A111U A120U A145C C150U C169G U176G | 0.00171
76 | C82U A111U A120G A145U U176C | 0.0131
77 | C82U A111U A120G A145U U176G | 0.0045
78 | C82U A111U A120G A145U U176A | 0.012
79 | C82U A111U A120G C150G U176C | 0.00776
80 | C82U A111U A120G C150G U176G | 0.00288
81 | C82U A111U A120G C150G U176A | 0.00524
82 | C82U A111U A120G A145U C150G U176G | 0.00302
83 | C82U A111U A120G A145U C150G U176A | 0.00538
